In publication PMC12857291 one finds Kd data, which are given here for one substance.

In experiment [1] the target is MeCP2-MBD domain wild-type, C-terminal 6xHis-tagged (UniProt P51608). Description: ITC; MicroCal PEAQ-ITC, 15 °C, 750 rpm; peptide (1.5 to 2 mM) in the syringe injected into protein (80 to 100 μM) in the cell; 50 mM HEPES pH 7.5, 200 mM NaCl, 5% glycerol; single-binding site model.
The target in experiment [2] is MeCP2-MBD aromatic cage mutants, W104, F132, Y141, F142 and F155 to alanine (group as printed for the range of KD limits). Described as above.

Chain of MeCP2-MBD domain wild-type, C-terminal 6xHis-tagged (P51608 90-162): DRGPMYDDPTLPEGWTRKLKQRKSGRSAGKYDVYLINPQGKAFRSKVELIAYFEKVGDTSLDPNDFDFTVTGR

On to “histone H3(15-36)K27me3 peptide (from UniProt P68431 16-37)”, for which the figures for the equilibrium dissociation constant (Kd) in experiment [1] and in experiment [2] were 5.2 µM and greater than 1000 µM, respectively.
